From patent publication US20110038790A1 (ONCLAVE THERAPEUTICS, published 2011) come the findings set out here.

T1: peptide 40, CGGAEDS
T1 peptide: CGGAEDS

T2: peptide 64, CGGAEDT
T2 peptide: CGGAEDT

T3: peptide 67, CGGHEDA
T3 peptide: CGGHEDA

B1: murine monoclonal antibody 2A4 (antibody, V domains shown)
VH: EVQLVESGGRLVQPKGSLKLSCAASGFTFNTYAMYWIRQAPGKGLEWVARIRSKSNNYAIYYADSVKDRFTIFRDDSQSMLYLQMNNLKTEDTAMYYCVRPYSDSFAYWGQGTLVTVSA
VL: DVVMTQTPLSLPVSLGDQASISCRSSQSLVHSTGNTYLHWYLQKPGQSPKLLIYKVSNRFSGVPDRFSGSGSGTYFTLKISRVEAEDLGVYFCSQSTHVPFTFGGGTKLEIK
notes: Mouse IgG2b kappa; Used as hybridoma culture supernatant or protein A-purified mAb; also called mAb 2A4; 2A4.20.44.77
B2: murine monoclonal antibody 8G9 (antibody, mouse IgG2b, V domains shown)
VH: B1 VH
VL: B1 VL
notes: Mouse IgG2b kappa; also called mAb 8G9; 8G9.3.4.51.22
B3: murine monoclonal antibody 7D8 (antibody, mouse IgG2b, V domains shown)
VH: B1 VH
VL: B1 VL with Q27L
notes: Mouse IgG2b kappa; also called mAb 7D8; 7D8.29.19.47
B4: murine AA amyloid (AA fibrils, amyloid enhancing factor extract or tissue deposits) (other, mouse, UniProt P05367 20-94, looked up)
chain: GFFSFIGEAFQGAGDMWRAYTDMKEAGWKDGDKYFHARGNYDAAQRGPGGVWAAEKISDARESFQEFFGRGHEDT
notes: Heterogeneous tissue-derived amyloid; also called Mouse AA (AEF); murine AA fibrils
B5: human AA amyloid (renal AA amyloid extract or tissue deposits) (other, UniProt P0DJI8 19-94, looked up)
chain: RSFFSFLGEAFDGARDMWRAYSDMREANYIGSDKYFHARGNYDAAKRGPGGAWAAEVITDARENIQRFFGHGAEDS
notes: Heterogeneous tissue-derived amyloid; also called human renal AA amyloid extract; human AA amyloid extract
B6: peptide 41, GHEDTIADQE (peptide)
peptide: GHEDTIADQE
notes: also called p41; p#41
B7: peptide 39, CGGHEDT (immunogen peptide EPRB-39) (peptide)
peptide: CGGHEDT
notes: also called p39; p#39

One test deals with T1, peptide 40, CGGAEDS. As to the kind of experiment: BIAcore analysis of peptide binding. Background: Surface plasmon resonance follows binding to a sensor surface in real time, without labels.
The target of another test is T2, peptide 64, CGGAEDT. Nature of the test: BIAcore analysis of peptide binding.
Another test concerns the target T3, peptide 67, CGGHEDA. Nature of the test: BIAcore analysis of peptide binding.
The target of test [1] is B7. Nature of the test: ELISA, purified mAb on adsorbed peptide 39. Background: An ELISA detects its analyte on a solid surface through an enzyme-linked reagent.
The test “peptide 41, GHEDTIADQE” addresses B6. Nature of the test: ELISA, purified mAb on adsorbed peptide 41. On the procedure:
(§1) Protein Mr markers (Std) are, form top to bottom: 176, 119, 75, 49, 39, 25 and 19 kDa. The interaction of the purified mAbs with immunizing peptide p#39, control peptide (p#41), murine and human AA extracts were determined by ELISA as described above.
(§2) In contrast, even at the highest concentration of mAb used (100 nM) there was little detectable binding to the p#41 peptide (FIG. 33—Each point represents the mean±SE, (n=3 at each concentration)). […] The calculated EC50 values for the mAbs binding to mouse AA extract were essentially identical to those obtained when the p#39 peptide was used as the substrate (FIG. 34; Table 5). […] Because the EC50 value for 7D8 mAb binding was the lowest of the 3 antibodies tested, Applicants selected this reagent for in vivo co-localization and imaging studies. The 2 amino acid substitutions in the human SAA sequence with respect to the murine protein affected the EC50 values.

Test [2] has as its target B4. As to the kind of experiment: ELISA, purified mAb on adsorbed mouse AA (AEF). The protocol: as §1, §2
In test [3] the target is B4. As to the kind of experiment: ELISA, hybridoma culture supernatant on murine AA (AEF). The text has this:
The interaction of 2A4, 8G9 and 7D8 mAbs with AA amyloid was initially tested by ELISA and the data, given in FIG. 31, analyzed using SigmaPlot (SPSS Inc.). Each point represents the mean±SE (n=3). A culture supernatant from an irrelevant hybridoma was used as a control (Ctrl Culture Sup). […] (In addition, the immunohistochemical reactivity of the day 1 material was greater than the day 2 samples). […] Because of the low signal and high variability found with the culture supernatants and to determine more accurately the relative binding affinity of the mAbs for murine and human AA amyloid fibrils (as well as to provide material for in vivo biodistribution studies) it was necessary to isolate the mAbs by protein A affinity chromatography. The purity of the isolated mAbs was established SDS-PAGE using 10% acrylamide gels under reducing and non-reducing conditions (FIG. 32). Samples in lanes 1-4 treated with mercaptoethanol, lanes 5-9 without. Gel was stained with Coomassie blue: mAb 8G9, lanes 1 and 6; mAb 2A4, lanes 2 and 7; mAb 7D8, lanes 3 and 8; SP2/0 control supernatant, lanes 4 and 9; blank, lane 5. Protein Mr markers (Std) are, form top to bottom: 176, 119, 75, 49, 39, 25 and 19 kDa. The interaction of the purified mAbs with immunizing peptide p#39, control peptide (p#41), murine and human AA extracts were determined by ELISA as described above.

For test [4], the target named is B5. As to the kind of experiment: ELISA, purified mAb on adsorbed human AA amyloid extract. The protocol: as §1, §2
Test [5] addresses B1. Nature of the test: competition ELISA: mouse AA (AEF) in solution against adsorbed human AA amyloid extract, mAb 2A4. The protocol:
(§3) To determine the effect, if any, of potential denaturation when adsorbed to the surface of the microtiter well, the reactivity of the 2A4, 8G9 and […] was evaluated using a competition ELISA in which murine or human AA amyloid extract was used as a soluble competitor for the interaction of the mAbs with surface-bound AA extract.
(§4) In general, the murine AA (AEF) extract was a better competitor than the human AA (Table 6).

Test [6] addresses B3. As to the kind of experiment: competition ELISA: mouse AA (AEF) in solution against adsorbed human AA amyloid extract, mAb 7D8. On the procedure:
as §3, §4

The target of test [7] is B2. As to the kind of experiment: competition ELISA: mouse AA (AEF) in solution against adsorbed human AA amyloid extract, mAb 8G9. The protocol: as §3, §4
The target in test [8] is B1. Nature of the test: competition ELISA: human AA amyloid in solution against adsorbed mouse AA (AEF), mAb 2A4. On the procedure:
as §3, §4

The target of test [9] is B3. Nature of the test: competition ELISA: human AA amyloid in solution against adsorbed mouse AA (AEF), mAb 7D8. On the procedure:
as §3, §4

Test [10] concerns the target B2. Nature of the test: competition ELISA: human AA amyloid in solution against adsorbed mouse AA (AEF), mAb 8G9. The protocol:
as §3, §4

Test [11] addresses B1. Nature of the test: immunohistochemistry, preincubation of 2A4 supernatant with peptide before staining murine AA amyloid. The text has this: The reactivity of supernatants from hybridomas expressing antibodies 2A4, 8G9 and 7D8 to murine AA splenic and hepatic amyloid deposits (the principal sites of amyloid deposition) was documented immunohistochemically. For these studies, sections of tissue harvested from a TRIAD mouse with extensive AA amyloid in the liver and spleen (as evidenced by green birefringent Congophilic deposits) were stained with the mAb-containing supernatants. All 3 bound to the hepatic and splenic amyloid. In contrast, there was no reactivity with culture supernatants derived from irrelevant hybridomas. The capability of the amyloid using 2A4, 8G9 and 7D8 to immunostain amyloid in fresh (unfixed), OCT-embedded murine liver and spleen was tested. There was evidence that the mAbs retained their ability to bind AA amyloid in the hepatic sinusoid. In addition, the antibody reactivity with splenic tissue was easier to interpret, and the perifollicular amyloid was intensely immunostained. […] In contrast, the p#41 peptide was ineffective.

Test [12] deals with B2. Nature of the test: immunohistochemistry with peptide inhibition, human ovarian tissue.
Test [13] deals with B1. As to the kind of experiment: immunohistochemistry, supernatant (1:25) preincubated with peptide.
In test [14] the target is B3. As to the kind of experiment: SPR competition, 7D8 with p39 at 1 µg/mL over immobilized Vλ6 Wil fibrils.

Changes are numbered by the printed parent chain.

Regarding B1, the binding result in the test with peptide 40, CGGAEDS is listed as “binds”; with peptide 64, CGGAEDT, “binds”; with peptide 67, CGGHEDA, “binds”. Further, the EC50 is 3.4 nM in test [1]; > 100 nM with peptide 41, GHEDTIADQE; 4.09 nM in [2]; 26.4 nM in [4]. For the same molecule, the “dilution of culture supernatant after which reactivity is absent” value (“dilution of culture supernatant” for short) in [3] is ~64 dilution factor (1:x).
B2: the EC50 was 4 nM in [1]; > 100 nM with peptide 41, GHEDTIADQE; 5.64 nM in test [2]; 31.7 nM in [4]. Further, the “dilution of culture supernatant” value in [3] was ~64 dilution factor (1:x).
Take B3: the binding result in the test with peptide 40, CGGAEDS is recorded as “binds”; with peptide 64, CGGAEDT, “binds”; with peptide 67, CGGHEDA it was “binds”. For the same molecule, the EC50 in [1] is 2.3 nM; in the test with peptide 41, GHEDTIADQE it was > 100 nM; in [2], 1.84 nM; in test [4], 13.3 nM. Further, the “dilution of culture supernatant” value in [3] was ~64 dilution factor (1:x).
For B4, the IC50 came to 14.7 µg/mL in [5], 26.8 µg/mL in test [6] and 17.3 µg/mL in test [7].
Regarding B5, the IC50 in [8] was > 212 µg/mL; in test [9], > 881 µg/mL; in test [10], > 120 µg/mL.
With B6, the binding result in test [11] is listed as “no binding (tested: 50 µg/mL)”.
B7: the binding result in [12] and in test [13] was “binds” each time. In test [14], the “fold decrease in the extent of binding of 7D8 to Vλ6 Wil fibrils” value is > 2 fold.

One may read the EC50 as the concentration needed to bring the measured effect to its halfway point. The IC50 is the midpoint of a concentration-inhibition curve. Lower therefore signals inhibition by little substance.
